From the supplement of paper PMC7877785
± gives the uncertainty stated by the source.

Assay: self-splicing fitness, log relative to wild type (ln ratio); higher = more splicing; Tetrahymena group I intron in knt gene, E. coli kanamycin selection, DiMSum; sequences stand for … in CUCUCU…GGAGGGAAAAGUUAUCAGGCAUGCACCUGGUAGCUAGUCUUUAAACCAAUAGAUUGCAUCGGUUUAAAAGGCAAGACCGUCAAAUUGCGGGAAAGGGGUCAACAGCCGUUCAGUACCAAGUCUCAGGGGAAACUUUGAGAUGGCCUUGCAAAGGGUAUGGUAAUAAGCUGACGGACAUGGUCCUAACCACGCAGCCAAGUCCUAAGUCAACAGAUCUUCUGUUGAUAUGGAUGCAGUUCACAGACUAAAUGUCGGUCGGGGAAGAUGUAUUCUUCUCAUAAGAUAUAGUCGGACCUCUCCUUAAUGGGAGCUAGCGGAUGAAGUGAUGCAACACUGGAGCCGCUGGGAACUAAUUUGUAUGCGAAAGUAUAUUGAUUAGUUUUGGAGUACUCGUGGUCG
Procedure, shortened: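 The eight P1ex-region nucleotides of an intron in the knt kanamycin-resistance gene on pET-22b(+) were all randomised and the library put into E. coli BL21(DE3). Six replicate transformations were grown overnight at 37°C or 30°C on LB agar with or without 25 μg/mL kanamycin, together with 100 μg/mL carbenicillin, 50 μM IPTG and 0.2% rhamnose. Colonies were pooled and amplicon-sequenced on an Illumina HiSeq 2500. Fitness from DiMSum is the error-weighted combination of wild-type-normalised replicate fold changes, kanamycin over none.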

Sequence	self-splicing fitness (ln) (30 °C)	self-splicing fitness (ln) (37 °C)
AGUAAGCAAUAUUACGGCUU	-0.592 ± 0.086	-0.0743 ± 0.11
AGUAAGCAAUAUUACGGGAA	-2.13 ± 0.16	-2.12 ± 0.19
AGUAAGCAAUAUUACGGGAG	-3.4 ± 0.2	-2.43 ± 0.2
AGUAAGCAAUAUUACGGGUU	-2.54 ± 0.18	-2.68 ± 0.2
AGUAAGCAAUAUUACGGUCA	-0.817 ± 0.074	0.0737 ± 0.081
AGUAAGCAAUAUUACGGUCC	-0.766 ± 0.061	-0.91 ± 0.08
AGUAAGCAAUAUUACGGUCU	-0.432 ± 0.093	-0.488 ± 0.11
AGUAAGCAAUAUUACGUAUG	-2.94 ± 0.29	-2.15 ± 0.24
AGUAAGCAAUAUUACGUUUA	-2.84 ± 0.22	-1.56 ± 0.18
AGUAAGCAAUAUUACGUUUG	-4.38 ± 0.29	-2.13 ± 0.21
AGUCAGCAAUAUUACGACAA	-0.509 ± 0.098	0.177 ± 0.13
AGUCAGCAAUAUUACGACAC	-0.0897 ± 0.065	-0.358 ± 0.084
AGUCAGCAAUAUUACGCCAU	-2.86 ± 0.25	-1.1 ± 0.21
AGUCAGCAAUAUUACGCCUU	-0.221 ± 0.11	0.301 ± 0.13
AGUCAGCAAUAUUACGCGGA	-3.11 ± 0.26	-1.79 ± 0.18
AGUCAGCAAUAUUACGCUUU	-0.879 ± 0.063	0.0148 ± 0.087
AGUCAGCAAUAUUACGGCCU	0.247 ± 0.1	0.507 ± 0.13
AGUCAGCAAUAUUACGGUCU	-0.851 ± 0.06	-0.146 ± 0.068
AGUCAGCAAUAUUACGUAGA	-2.08 ± 0.095	-0.757 ± 0.098
AGUCAGCAAUAUUACGUAGG	-3.1 ± 0.12	-1.64 ± 0.14
AGUCAGCAAUAUUACGUAGU	-1.21 ± 0.077	-0.268 ± 0.12
AGUCAGCAAUAUUACGUAUA	-2.69 ± 0.12	-1.33 ± 0.1
AGUCAGCAAUAUUACGUCUG	-2.2 ± 0.13	-0.783 ± 0.12
AGUCAGCAAUAUUACGUUGC		-2.83 ± 0.3
AGUGAGCAAUAUUACGAAAC	-2.97 ± 0.38	-1.2 ± 0.33
AGUGAGCAAUAUUACGACAA	-2.34 ± 0.23	-0.743 ± 0.18
AGUGAGCAAUAUUACGAGUA	-3.6 ± 0.44	-2.18 ± 0.32

Sequence	self-splicing fitness (ln) (30 °C)	self-splicing fitness (ln) (37 °C)
AGUGAGCAAUAUUACGCCGU	-2.39 ± 0.38	
AGUGAGCAAUAUUACGCCUC	-1.98 ± 0.24	
AGUGAGCAAUAUUACGCGCG	-1.28 ± 0.16	-1.83 ± 0.22
AGUGAGCAAUAUUACGCGUC	-1.51 ± 0.3	-2.62 ± 0.45
AGUGAGCAAUAUUACGCGUG	-4.06 ± 0.28	-2.34 ± 0.15
AGUGAGCAAUAUUACGCUUA		-1.98 ± 0.38
AGUGAGCAAUAUUACGGAGU	-2.86 ± 0.3	-3.09 ± 0.35
AGUGAGCAAUAUUACGGCAU	-1.36 ± 0.12	-0.254 ± 0.13
AGUGAGCAAUAUUACGGCGA	-1.18 ± 0.14	-2 ± 0.21
AGUGAGCAAUAUUACGGGGC		-2.75 ± 0.29
AGUGAGCAAUAUUACGGUAG	-3.02 ± 0.4	
AGUGAGCAAUAUUACGGUUG	-3.38 ± 0.27	-1.92 ± 0.24
AGUGAGCAAUAUUACGUCGA	-3.92 ± 0.24	-2 ± 0.16
AGUGAGCAAUAUUACGUUAC	-3.72 ± 0.47	
AGUGAGCAAUAUUACGUUGG	-4.42 ± 0.36	-1.98 ± 0.26
AGUGAGCAAUAUUACGUUUC	-3.41 ± 0.23	-3.56 ± 0.32
AGUUAGCAAUAUUACGAAGG	-4.03 ± 0.22	-3.4 ± 0.28
AGUUAGCAAUAUUACGACUA	-0.154 ± 0.18	0.0802 ± 0.17
AGUUAGCAAUAUUACGAUCC	0.593 ± 0.14	-0.367 ± 0.15
AGUUAGCAAUAUUACGCACA	0.242 ± 0.2	0.395 ± 0.28
AGUUAGCAAUAUUACGCAUU	-3.25 ± 0.25	-0.806 ± 0.17
AGUUAGCAAUAUUACGCGAA	-2.29 ± 0.15	-1.1 ± 0.13
AGUUAGCAAUAUUACGCUAU	-2.29 ± 0.17	-1.21 ± 0.14
AGUUAGCAAUAUUACGGGAA	-2.22 ± 0.19	-1.05 ± 0.16
AGUUAGCAAUAUUACGGGUC	-1.99 ± 0.33	
AGUUAGCAAUAUUACGGUCA	-1.08 ± 0.077	-0.46 ± 0.085
AGUUAGCAAUAUUACGUAGG	-4.63 ± 0.32	

Sequence	self-splicing fitness (ln) (30 °C)	self-splicing fitness (ln) (37 °C)
AGUUAGCAAUAUUACGUAUC	-3.63 ± 0.2	-2.25 ± 0.18
AGUUAGCAAUAUUACGUCGA	-1.37 ± 0.12	-1.02 ± 0.13
AGUUAGCAAUAUUACGUCGC	-2.96 ± 0.39	-0.924 ± 0.18
AGUUAGCAAUAUUACGUGGU	-3.34 ± 0.15	-3.35 ± 0.23
AGUUAGCAAUAUUACGUUCG	-1.26 ± 0.082	-0.903 ± 0.1
AGUUAGCAAUAUUACGUUUC	-3.37 ± 0.34	
AGUUAGCAAUAUUACGUUUG	-3.13 ± 0.24	-1.8 ± 0.29
AGUUAGCAAUAUUACGUUUU	-3.11 ± 0.18	-1.41 ± 0.15
AUAAAGCAAUAUUACGACAA	-0.556 ± 0.086	0.621 ± 0.12
AUAAAGCAAUAUUACGACGU	0.742 ± 0.063	0.786 ± 0.074
AUAAAGCAAUAUUACGACUG	-1.14 ± 0.085	-0.454 ± 0.098
AUAAAGCAAUAUUACGAGCG	-0.041 ± 0.086	0.101 ± 0.09
AUAAAGCAAUAUUACGCAAU	-0.8 ± 0.074	-0.703 ± 0.11
AUAAAGCAAUAUUACGCAGG	-1.32 ± 0.098	-0.913 ± 0.14
AUAAAGCAAUAUUACGCCAA	-0.625 ± 0.15	-0.34 ± 0.17
AUAAAGCAAUAUUACGCCCC	-0.123 ± 0.16	0.0897 ± 0.24
AUAAAGCAAUAUUACGCCCG	-1.01 ± 0.14	-0.313 ± 0.16
AUAAAGCAAUAUUACGCGAU	-2.45 ± 0.15	-1.36 ± 0.16
AUAAAGCAAUAUUACGCGCU	-0.372 ± 0.1	-0.603 ± 0.12
AUAAAGCAAUAUUACGCUUC	-3.66 ± 0.37	-2.39 ± 0.32
AUAAAGCAAUAUUACGCUUU	-4.03 ± 0.24	-1.59 ± 0.23
AUAAAGCAAUAUUACGGAAG	-2.3 ± 0.098	-0.18 ± 0.11
AUAAAGCAAUAUUACGGAUC	-1.55 ± 0.13	-0.273 ± 0.15
AUAAAGCAAUAUUACGGUCU	-0.245 ± 0.061	0.47 ± 0.088
AUAAAGCAAUAUUACGGUUC	-2.17 ± 0.088	-0.743 ± 0.1
